Source: the supplement of paper PMC7125110
± gives the standard error. Fewer inactive variants are shown than the library holds.

B1: glmS ribozyme (parent)
chain: AUAAAAGCGCCAGAACUACAGAAAUGUAGUUGACGAGGAGGAGGUUUAUCGAAUUUUCGGCGGAUGCCUCCAAA

How the values were obtained:
Conditions in all cases: with glucosamine-6-phosphate
glucosamine-6-phosphate [1] = variants of: B1; experiment: self-cleavage kobs at 40 uM GlcN6P; higher = faster cleavage; RNA array
Summary of the method: (§1)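 Ribozyme variants carrying barcodes were transcribed in situ on sequenced MiSeq chips by E. coli RNA polymerase and tracked at 37 °C with a hybridised Cy3 probe. They were exposed to 40 μM to 10 mM glucosamine-6-phosphate in HEPES/KCl/Mg(OAc)2 buffer. kobs came from exponential decay fits of normalised per-tile medians, and kcat and KM from weighted Michaelis–Menten fits.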

glucosamine-6-phosphate [2] = variants of: B1; experiment: self-cleavage kobs at 160 uM GlcN6P; higher = faster cleavage; RNA array
Summary of the method: as §1

glucosamine-6-phosphate [3] = variants of: B1; experiment: self-cleavage kobs at 10000 uM GlcN6P; higher = faster cleavage; RNA array
Summary of the method: as §1

glucosamine-6-phosphate [4] = variants of: B1; experiment: self-cleavage kobs at 2500 uM GlcN6P; higher = faster cleavage; RNA array
Summary of the method: as §1

glucosamine-6-phosphate [5] = variants of: B1; experiment: self-cleavage kobs at 640 uM GlcN6P; higher = faster cleavage; RNA array
Summary of the method: as §1

| Variant | self-cleavage kobs at 40 uM GlcN6P (glucosamine-6-phosphate [1]) | self-cleavage kobs at 160 uM GlcN6P (glucosamine-6-phosphate [2]) | self-cleavage kobs at 10000 uM GlcN6P (glucosamine-6-phosphate [3]) | self-cleavage kobs at 2500 uM GlcN6P (glucosamine-6-phosphate [4]) | self-cleavage kobs at 640 uM GlcN6P (glucosamine-6-phosphate [5]) |
| --- | --- | --- | --- | --- | --- |
| A52U G63U | < 1e-05 s⁻¹ | < 1e-05 s⁻¹ | < 1e-05 s⁻¹ |  |  |
| U57G G63U | < 1e-05 s⁻¹ | < 1e-05 s⁻¹ | < 1e-05 s⁻¹ | < 1e-05 s⁻¹ |  |
| U55A G63U | < 1e-05 s⁻¹ |  | < 1e-05 s⁻¹ |  | < 1e-05 s⁻¹ |
| U54A G63A | < 1e-05 s⁻¹ | < 1e-05 s⁻¹ |  |  | < 1e-05 s⁻¹ |
| U54A G63C | < 1e-05 s⁻¹ |  | < 1e-05 s⁻¹ |  |  |
| C58G G60A | < 1e-05 s⁻¹ |  |  |  |  |
| U55G G63A | < 1e-05 s⁻¹ | < 1e-05 s⁻¹ | < 1e-05 s⁻¹ | < 1e-05 s⁻¹ | < 1e-05 s⁻¹ |
| A52U C58A | < 1e-05 s⁻¹ |  |  |  | < 1e-05 s⁻¹ |
| A52U C58G | < 1e-05 s⁻¹ |  | < 1e-05 s⁻¹ |  | < 1e-05 s⁻¹ |
| A52U G59U | < 1e-05 s⁻¹ | < 1e-05 s⁻¹ | < 1e-05 s⁻¹ |  | < 1e-05 s⁻¹ |
| A53G G62A | < 1e-05 s⁻¹ |  | < 1e-05 s⁻¹ |  | < 1e-05 s⁻¹ |
| U56C C61U C70A C71U | < 1e-05 s⁻¹ |  |  | < 1e-05 s⁻¹ |  |
| A52U G60U C67U | < 1e-05 s⁻¹ |  | < 1e-05 s⁻¹ |  |  |
| U55A C61G | < 1e-05 s⁻¹ |  | < 1e-05 s⁻¹ |  |  |
| U56C G59C | < 1e-05 s⁻¹ |  | < 1e-05 s⁻¹ |  |  |
| U56C C61U C71U | < 1e-05 s⁻¹ |  |  |  |  |
| A52G U57G | 5.61e-05 ± 1.6e-05 s⁻¹ | 0.000188 ± 6.1e-05 s⁻¹ | 0.00397 ± 0.00056 s⁻¹ | 0.00103 ± 0.00019 s⁻¹ | 0.000523 ± 0.00014 s⁻¹ |
| U54C C68U | 0.000265 ± 3.7e-05 s⁻¹ | 0.000635 ± 8.4e-05 s⁻¹ | 0.0106 ± 0.0023 s⁻¹ | 0.00216 ± 0.0005 s⁻¹ | 0.000868 ± 0.00023 s⁻¹ |
| U54G U69C | 0.00112 ± 0.00028 s⁻¹ | 0.000153 ± 6e-05 s⁻¹ | 0.00526 ± 0.0011 s⁻¹ | 0.00133 ± 0.00041 s⁻¹ | 0.000689 ± 0.00017 s⁻¹ |
| U55A G60A C67U | < 1e-05 s⁻¹ |  |  |  |  |
| U54A C61A G66U | < 1e-05 s⁻¹ |  |  |  |  |
| U54A G62U | < 1e-05 s⁻¹ |  | < 1e-05 s⁻¹ | < 1e-05 s⁻¹ |  |
| U54C U55G | 0.00056 ± 0.00017 s⁻¹ | 0.000955 ± 0.00031 s⁻¹ | 0.0366 ± 0.018 s⁻¹ | 0.00712 ± 0.0021 s⁻¹ | 0.00482 ± 0.0012 s⁻¹ |
